Key:
Variant 9: xPro1.FL-x9 = target: T1, Variant 9: xPro1.FL-x9 (human; mouse); assay: FACS, 1 ug/mL antibody, transfected 293F cells
T1 construct: Chimeric full-length LAG-3 on transfected 293F cells
T1 chain: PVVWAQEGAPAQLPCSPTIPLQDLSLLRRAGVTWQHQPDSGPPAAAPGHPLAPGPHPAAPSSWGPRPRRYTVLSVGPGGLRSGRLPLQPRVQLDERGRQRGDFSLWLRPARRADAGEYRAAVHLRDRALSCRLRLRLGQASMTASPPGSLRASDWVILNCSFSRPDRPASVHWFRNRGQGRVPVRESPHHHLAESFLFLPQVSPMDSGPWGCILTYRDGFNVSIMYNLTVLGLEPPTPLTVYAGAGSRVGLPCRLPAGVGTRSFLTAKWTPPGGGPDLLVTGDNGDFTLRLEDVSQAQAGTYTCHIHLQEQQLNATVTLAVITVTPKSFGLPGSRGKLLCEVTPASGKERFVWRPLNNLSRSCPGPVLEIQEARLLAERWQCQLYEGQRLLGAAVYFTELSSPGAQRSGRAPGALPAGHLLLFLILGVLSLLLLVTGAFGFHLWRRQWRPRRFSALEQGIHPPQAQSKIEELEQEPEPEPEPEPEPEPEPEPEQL
Description: (§1) The 10 variants were cloned into pcDNA3 vector and used for 293F cell transfection. Briefly, 293F cells were diluted to a density of 1×10⁶ cells/mL with FreeStyle 293F medium and aliquots of 3 mL/well were added to 24-well plate. Transfections were performed using 293fectin reagent (Life Technologies). For each transfection, 3 μg of DNA were diluted in 150 μOpti-MEM I-reduced serum medium (Life Technologies), and then combined with 6μL 293fectin reagent pre-diluted in 150 μL Opti-MEM I reduced serum medium. The DNA/[…] mixture was allowed to stand at 25° C. for 20 min before being added to the culture. The transfected cells were analyzed by flow cytometry at 48 h post-transfection.
(§2) Binding of antibodies to chimeric LAG-3 variants or full length human/mouse LAG-3 was analyzed by flow cytometry. Briefly, 1 μg/mL antibodies were incubated with chimeric LAG-3-expressing transfected 293F cells for 1 hour at 4° C., and then incubated with 3 μg/mL goat anti-human IgG Fc R-PE (Jackson) for 40 min at 4° C. Cells were analyzed with flow cytometer.

Variant 5: xPro1.FL-x5 = target: T2, Variant 5: xPro1.FL-x5 (human; mouse); assay: FACS, 1 ug/mL antibody, transfected 293F cells
T2 construct: Chimeric full-length LAG-3 on transfected 293F cells
T2 chain: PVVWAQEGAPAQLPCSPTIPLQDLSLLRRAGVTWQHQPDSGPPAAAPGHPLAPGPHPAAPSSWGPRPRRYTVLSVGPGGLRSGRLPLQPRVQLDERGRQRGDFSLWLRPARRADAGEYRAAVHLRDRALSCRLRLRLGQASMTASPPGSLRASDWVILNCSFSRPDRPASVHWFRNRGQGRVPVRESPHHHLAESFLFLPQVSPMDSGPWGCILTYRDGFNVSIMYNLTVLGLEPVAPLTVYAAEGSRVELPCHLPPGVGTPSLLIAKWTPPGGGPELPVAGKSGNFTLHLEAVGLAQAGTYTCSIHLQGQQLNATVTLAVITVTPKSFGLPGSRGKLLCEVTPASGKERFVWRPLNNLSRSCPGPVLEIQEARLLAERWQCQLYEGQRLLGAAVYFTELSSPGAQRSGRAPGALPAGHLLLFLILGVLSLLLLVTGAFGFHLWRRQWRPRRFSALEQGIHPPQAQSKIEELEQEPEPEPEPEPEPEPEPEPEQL
Description: as §1, §2

Variant 6: xPro1.FL-x6 = target: T3, Variant 6: xPro1.FL-x6 (human; mouse); assay: FACS, 1 ug/mL antibody, transfected 293F cells
T3 construct: Chimeric full-length LAG-3 on transfected 293F cells
T3 chain: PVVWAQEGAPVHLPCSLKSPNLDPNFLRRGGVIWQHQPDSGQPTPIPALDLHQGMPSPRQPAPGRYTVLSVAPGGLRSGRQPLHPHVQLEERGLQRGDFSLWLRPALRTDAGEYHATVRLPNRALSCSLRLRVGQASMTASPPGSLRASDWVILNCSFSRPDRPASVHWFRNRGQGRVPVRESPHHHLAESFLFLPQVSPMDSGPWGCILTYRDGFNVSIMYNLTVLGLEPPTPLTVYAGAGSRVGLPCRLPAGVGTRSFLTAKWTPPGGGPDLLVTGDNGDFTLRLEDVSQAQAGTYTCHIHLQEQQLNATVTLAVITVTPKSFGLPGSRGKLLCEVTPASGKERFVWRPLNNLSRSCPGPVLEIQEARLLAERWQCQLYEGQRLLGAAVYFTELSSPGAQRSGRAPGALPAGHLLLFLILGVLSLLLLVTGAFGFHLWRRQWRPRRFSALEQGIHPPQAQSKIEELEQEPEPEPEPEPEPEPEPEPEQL
Description: as §1, §2

[1] = target: T4, full-length human LAG-3 on cells (human, UniProt P18627 23-525); assay: FACS, 1 ug/mL antibody, transfected 293F cells
T4 construct: Expressed on Flp-In-293, CHO or 293F transfectants; also called hPro1.FL; cell surface human LAG-3
T4 sequence: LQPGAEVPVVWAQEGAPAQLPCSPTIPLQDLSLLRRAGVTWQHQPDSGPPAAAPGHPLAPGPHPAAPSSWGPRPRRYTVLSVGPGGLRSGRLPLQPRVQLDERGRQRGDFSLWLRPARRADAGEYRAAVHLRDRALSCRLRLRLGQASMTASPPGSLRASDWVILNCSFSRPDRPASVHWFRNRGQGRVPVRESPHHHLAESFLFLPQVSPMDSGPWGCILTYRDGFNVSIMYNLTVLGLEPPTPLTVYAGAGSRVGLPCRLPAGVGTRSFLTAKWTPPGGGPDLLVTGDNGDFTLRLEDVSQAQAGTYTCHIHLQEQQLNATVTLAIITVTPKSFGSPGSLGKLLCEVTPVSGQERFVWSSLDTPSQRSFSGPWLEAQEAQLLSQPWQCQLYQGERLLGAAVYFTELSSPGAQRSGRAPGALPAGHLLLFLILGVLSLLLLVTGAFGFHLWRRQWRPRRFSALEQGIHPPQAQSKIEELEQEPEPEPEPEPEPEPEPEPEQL
Description: as §1, §2

[2] = target: T4, full-length human LAG-3 on cells; assay: FACS on human LAG-3 transfectant cells
Description: Various concentrations of testing antibodies, positive and negative controls were added to human LAG-3 transfectant cells, and then the binding of antibodies onto the surface of the cells was detected by corresponding PE-labeled secondary antibodies.

B1: 3.40.19-uAb-IgG4L (antibody, V domains shown)
VH: QLQLQESGPGLVKPSETLSLTCTVSGDSISSTSYYWGWIRQPPGKGLEWIGSFYYSGSTYYNPSLKSRVTISVDTSKNQFSLKLNSVTAADTAVYYCARMQLWSYDVDVWGQGTTVTVSS
VL: QSALTQPASVSGSPGQSITISCTGTSSDVGGYDYVAWYQQHPGKVPKLMIYDVSERPSGVSNRFSGSKSGNTASLTISGLQAEDEADYYCSSYTSTTTLVVFGGGTKLSVL
notes: Fully human antibody from OMT rats; IgG4 lambda by its name; also called 3.40.19-uAb-hIgG4L
- MFI (Variant 9: xPro1.FL-x9): 8320
- PE+ % (Variant 9: xPro1.FL-x9): 87.3%
- MFI (Variant 5: xPro1.FL-x5): 7070
- PE+ % (Variant 5: xPro1.FL-x5): 75.9%
- MFI (Variant 6: xPro1.FL-x6): 44.1
- PE+ % (Variant 6: xPro1.FL-x6): 0.674%
- MFI [1]: 6520
- PE+ % [1]: 83.5%
- EC50 [2]: 0.13 nM

B2: 1.53.3-uAb-IgG4k (antibody, V domains shown)
VH: QVQLQQWGAGLLKPSETLSLTCGVYGGSFSGYYWSWIRQPPGMGLEWIGEINHRGNTNYNPSLKSRVTISEDTSKNQFSLRLSSVTAADTAVYFCTRGEDYSDYDYYGDFWGQGTLVTVSS
VL: EIVLTQSPATLSLSQGERATLSCRASQSISSYLAWYQQKPGQAPRLLIYAASNRATGIPARFSGSGSGTDFTLTISSLEPEDFAIYYCQQRSNWPLTFGGGTKVEIK
notes: Fully human antibody from OMT rats; IgG4 kappa by its name
- MFI (Variant 9: xPro1.FL-x9): 7030
- PE+ % (Variant 9: xPro1.FL-x9): 97.3%
- MFI (Variant 5: xPro1.FL-x5): 6260
- PE+ % (Variant 5: xPro1.FL-x5): 97.1%
- MFI (Variant 6: xPro1.FL-x6): 59.9
- PE+ % (Variant 6: xPro1.FL-x6): 1.86%
- MFI [1]: 6540
- PE+ % [1]: 96.8%
- EC50 [2]: 0.43 nM

Reference: US20200407442A1 (WUXI BIOLOGICS IRELAND, published 2020)
